Results on 5 molecules are retold here after patent publication US10023629B2 (priority 2012, dated 2018).

The target of assay [1] is N1rec, tetrameric recombinant N1 Neuraminidase (Influenza A virus, UniProt Q30CC2). The assay is described as follows: biochemical. Details: species or system H5N1 A/crested eagle/Belgium/09/2004.
A further assay relates to H5N1 NIBRG-23. The assay is described as follows: microbe, parasite or virus in culture. To be noted: Influenza A virus, H5N1, read-out: NIBRG-23, plaque size reduction. In kind it is cell-based, H5N1 influenza virus in MDCK cells.
Another assay has as its system NIBRG-14ma virus. Set-up: species or system BALB/c mice. To be noted: mouse, in vivo.
Another assay concerns H5N1 NIBRG-14. The assay is described as follows: microbe, parasite or virus in culture. In kind it is cell-based, H5N1 influenza virus in MDCK cells.
A further assay concerns N1rec. It is filed as binding, H5N1 A/crested eagle/Belgium/09/2004.
The target in assay [2] is N1rec, tetrameric recombinant N1 Neuraminidase (soluble recombinant H5N1 NA derived from A/crested e (influenza A virus A/crested eagle/Belgium/01/2004 (H5N1))). The assay is described as follows: SPR (Biacore 3000), N1rec immobilized on CM5 chip, VHHm injected.
Assay [3] has the same target. The assay is described as follows: SPR, immobilized N1rec.
Assay [4] has the same target. The assay is described as follows: cell-based or functional assay.

“Also recorded” adds a separate entry of the source.

Take `CCOC(=O)C1=C[C@@H](OC(CC)CC)[C@H](NC(C)=O)[C@@H](N)C1` [Oseltamivir]: the IC50 in assay [1] was found to be 586 nM. Besides, the IC50 in the assay with H5N1 NIBRG-23 amounted to 73000 nM. Besides, in the assay on NIBRG-14ma virus, the “morbidity (body weight)” value is recorded as “significant body weight loss”, the “protection against lethality” value is on record as “protected the mice against lethality; also recorded: full protection” and the “viral RNA in lung homogenates (RT-qPCR Ct)” value is reported as “only slightly different”. Moreover, in the assay with NIBRG-14ma virus (po, 1 mg/kg/day), the survival is reported as 100%. Moreover, in the assay with H5N1 NIBRG-14 (Influenza A virus, H5N1, read-out: NIBRG-14, plaque size reduction), the IC50 is 15000 nM.

B1: N1-7-VHHm: binding but non-inhibitory N1-VHHm control (protein)
VHH: QVQLQESGGGLVQPGGSLRLSCAASGSRFSRYDMGWYRQAPGKQRELVATITSGGITNYADSVKGRFTISRDNTKNTVYLQMNSLKPEDTAVYYCNAEDPLRAIQLGSLTYEYWGQGTQVTVSSHHHHHH
Regarding B1, in the assay with N1rec, the Koff stood at 2.8E^−3 s^−1; the Kon was determined as 4.4E^+4 M^−1 · s^−1; the “binding to N1rec after prior binding of another N1-VHHm” value is “not affected”; the “fold lower affinity KD than N1-5-VHHm and N1-3-VHHm, respectively” value is given as 10- to 100 fold. In addition, the Kd at N1rec (read-out: KKD) turned out to be 63 nM. Besides, the “size and number of NIBRG-14 plaques” value in the assay on H5N1 NIBRG-14 was “did not affect the size or number”.

B2: N1-7-VHHm (VHH)
VHH: QVQLQESGGGLVQPGGSLRLSCAASGSRFSRYDMGWYRQAPGKQRELVATITSGGITNYADSVKGRFTISRDNTKNTVYLQMNSLKPEDTAVYYCNAEDPLRAIQLGSLTYEYWGQGTQVTVSS
Consider B2, for which, in assay [2], the Kd stood at 63 nM; the koff (usually the first-order rate constant of dissociation) worked out at 0.0028 s⁻¹; the kon (in general, a measure of how fast the partners come together) came out at 44000 M⁻¹ s⁻¹. In assay [3], the fold lower affinity (KD) than N1-3-VHHm worked out at 100 fold and the fold lower affinity (KD) than N1-5-VHHm turned out to be 10 fold.

B3: N1-5-VHHm (VHH)
VHH: QVQLQESGGGLVQPGGSLRLSCAASGSDISIYEMGWYRQAPGKQRELVAAITSGGTTNYADSVKGRFTISRDNAKNTVYLQMNSLKPEDTAVYYCNAADFDLWEYDYWGQGTQVTVSS
For B3, in assay [2], the Kd was determined as 4.7 nM, the koff was determined as 0.00058 s⁻¹ and the kon came out at 120000 M⁻¹ s⁻¹. In addition, the IC50 of inhibition of the catalytic N1 NA activity (MUNANA, 160 ng N1rec) in assay [4] came out at 375 nM.

B4: N1-3-VHHm (VHH)
VHH: QVQLQESGGGLVQPGGSLRLSCAASGSIFSIHDMGWYRRAPGKQRELVAAITSGGSTNYADSVKGRFTISRDNAKNTVSLQMNSLKPEDTAVYYCNAWGEDYGLGEYDSWGQGTQVTVSS
With B4, in assay [2], the Kd is 0.37 nM, the koff came to 0.0013 s⁻¹ and the kon came to 3.6e+06 M⁻¹ s⁻¹. The IC50 of inhibition of the catalytic N1 NA activity (MUNANA, 160 ng N1rec) in assay [4] came out at 425 nM.
